The target of this experiment is T1, Recombinant human CD47(ECD)-HIS (human, UniProt Q08722 19-139, limits assumed).
T1 construct: also called huCD47-HIS; not shown: HIS tag
Briefly: competition ELISA: blocking of SIRPα binding to CD47(ECD)-HIS. (An ELISA detects its analyte on a solid surface through an enzyme-linked reagent.)

Where a chain is given by its changes, count along the chain named.

T1 sequence (Q08722 19-139 limits assumed): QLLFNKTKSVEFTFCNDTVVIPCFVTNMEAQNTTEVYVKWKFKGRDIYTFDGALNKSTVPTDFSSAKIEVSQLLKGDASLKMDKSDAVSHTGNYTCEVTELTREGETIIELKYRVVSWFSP

B1: H8L10 (antibody, V domains shown)
VH: QVQLVQSGAEVKKPGASVKVSCKASGYTFTSYWMHWVRQAPGQGLEWIGNIDPSDSETHYAQKFQGRVTLTVDKSTSTVYMELSSLRSEDTAVYYCAGTDLAYWGQGTLVTVSS
VL: EIVMTQSPGTLSLSPGERATLSCHASQNINVWLSWYQQKPGQAPRLLIYKASNLHTGIPDRFSGSGSGTDFTLTISRLEPEDFAVYYCQQGQSYPFTFGQGTKVEIK
notes: Humanized from mouse 17C6A; also called humanized anti-CD47 mAb H8L10
For B1, the half-inhibitory concentration (IC50) (commonly the concentration needed to halve the response being measured) was 1.05 nM.

B2: H2L3 (antibody, V domains shown)
VH: QVQLVQSGAEVKKPGASVKLSCKASGYTFTSYWMHWVRQAPGQGLEWMGNIDPSDSETHYNQKFKDRVTLTVDTSTSTAYMELSSLRSEDTAVYYCSRWGYYGKSAMDYWGQGTLVTVSS
VL: AVQLTQSPSFLSASVGQRITINCRASKSISKYLAWYQEKPGKANKLLIYSGSTLQSGIPSRFSGSGSGTDFTLTISSLQPEDFAMYYCQQHNEYPWTFGGGTKVEIK
notes: also called humanized anti-CD47 mAb H2L3
As for B2, the half-maximal inhibitory concentration (IC50) was 9.56 nM.

B3: H2L4 (antibody, V domains shown)
VH: B2 VH
VL: B2 VL with L4I, R18T, Q79E
notes: also called humanized anti-CD47 mAb H2L4
Take B3: the concentration for half-maximal inhibition (IC50) was determined as 6.52 nM.

B4: H2L1 (antibody, V domains shown)
VH: B2 VH
VL: B2 VL with Q17D, I19V, N22T, E38Q, I58V, D70E
notes: also called humanized anti-CD47 mAb H2L1
As to B4, the half-maximal inhibitory concentration (IC50) came to 4.73 nM.

B5: H1L3 (antibody, V domains shown)
VH: B2 VH with L20V, A79V
VL: B2 VL
notes: also called humanized anti-CD47 mAb H1L3
For B5, the IC50 came out at 7.43 nM.

B6: H3L4 (antibody, V domains shown)
VH: B2 VH with M48I, V68A
VL: B2 VL with L4I, R18T, Q79E
notes: also called humanized anti-CD47 mAb H3L4
For the molecule B6, the concentration for half-maximal inhibition (IC50) turned out to be 5.35 nM.

B7: H1L4 (antibody, V domains shown)
VH: B2 VH with L20V, A79V
VL: B2 VL with L4I, R18T, Q79E
notes: also called humanized anti-CD47 mAb H1L4
As to B7, the half-maximal inhibitory concentration (IC50) amounted to 8.09 nM.

B8: H1L2 (antibody, V domains shown)
VH: B2 VH with L20V, A79V
VL: B2 VL with E38Q, I58V, D70E
notes: Humanized from mouse 13B18A; also called humanized anti-CD47 mAb H1L2
Turning to B8, the IC50 stood at 6.8 nM.

B9: H3L9 (antibody, V domains shown)
VH: B2 VH with M48I, V68A
VL: B2 VL with A1D, Q17D, I19V, N22T, E38Q, I58V, D70E
notes: also called humanized anti-CD47 mAb H3L9
With B9, the half-maximal inhibitory concentration (IC50) was 9.6 nM.

B10: H3L2 (antibody, V domains shown)
VH: B2 VH with M48I, V68A
VL: B2 VL with E38Q, I58V, D70E
notes: also called humanized anti-CD47 mAb H3L2
For the molecule B10, the 50% inhibitory concentration (IC50) is 7.88 nM.

B11: H6L5 (antibody, V domains shown)
VH: QIQLVQSGAEVKKPGASVKVSCKASGYTFTAYYINWVRQAPGQRLEWIGWIYPGSGNTKYNEKFKGRVTLTVDTSASTAYIELSSLRSEDTAVYFCARRGPWYFDVWGQGTTVTVSS
VL: EIVMTQSPATLSLSPGERATLSCRASENVGTYVSWYQQKPGQAPNLLIYGASNRYTGIPARFSGSGSGTDFTLTISSLQPEDFAVYHCGQTYSYPLTFGQGTKLEIK
notes: also called humanized anti-CD47 mAb H6L5
Take B11: the 50% inhibitory concentration (IC50) is 9.67 nM.

B12: H6L8 (antibody, V domains shown)
VH: B11 VH
VL: B11 VL with E1N, R24K, A43S, I58V, A60D, G68A, V85D
notes: also called humanized anti-CD47 mAb H6L8
For B12, the IC50 is 13.2 nM.

B13: H5L5 (antibody, V domains shown)
VH: B11 VH with F95Y
VL: B11 VL
notes: also called humanized anti-CD47 mAb H5L5
B13: the IC50 is 15.1 nM.

B14: H6L7 (antibody, V domains shown)
VH: B11 VH
VL: B11 VL with R24K, A43S, A60D
notes: also called humanized anti-CD47 mAb H6L7
Turning to B14, the IC50 was 39.2 nM.
